B1: Signal transducer and activator of transcription 5B (Homo sapiens), P51692 (parent)
chain: MAVWIQAQQLQGEALHQMQALYGQHFPIEVRHYLSQWIESQAWDSVDLDNPQENIKATQLLEGLVQELQKKAEHQVGEDGFLLKIKLGHYATQLQNTYDRCPMELVRCIRHILYNEQRLVREANNGSSPAGSLADAMSQKHLQINQTFEELRLVTQDTENELKKLQQTQEYFIIQYQESLRIQAQFGPLAQLSPQERLSRETALQQKQVSLEAWLQREAQTLQQYRVELAEKHQKTLQLLRKQQTIILDDELIQWKRRQQLAGNGGPPEGSLDVLQSWCEKLAEIIWQNRQQIRRAEHLCQQLPIPGPVEEMLAEVNATITDIISALVTSTFIIEKQPPQVLKTQTKFAATVRLLVGGKLNVHMNPPQVKATIISEQQAKSLLKNENTRNDYSGEILNNCCVMEYHQATGTLSAHFRNMSLKRIKRSDRRGAESVTEEKFTILFESQFSVGGNELVFQVKTLSLPVVVIVHGSQDNNATATVLWDNAFAEPGRVPFAVPDKVLWPQLCEALNMKFKAEVQSNRGLTKENLVFLAQKLFNNSSSHLEDYSGLSVSWSQFNRENLPGRNYTFWQWFDGVMEVLKKHLKPHWNDGAILGFVNKQQAHDLLINKPDGTFLLRFSDSEIGGITIAWKFDSQERMFWNLMPFTTRDFSIRSLADRLGDLNYLIYVFPDRPKDEVYSKYYTPVPCESATAKAVDGYVKPQIKQVVPEFVNASADAGGGSATYMDQAPSPAVCPQAHYNMYPQNPDSVLDTDGDFDLEDTMDVARRVEELLGRPMDSQWIPHAQS

The variants in the assay derive from B1. The note with it: with abl1_human ABL1, P00519.
Chain of abl1_human ABL1, P00519 (P00519 whole entry): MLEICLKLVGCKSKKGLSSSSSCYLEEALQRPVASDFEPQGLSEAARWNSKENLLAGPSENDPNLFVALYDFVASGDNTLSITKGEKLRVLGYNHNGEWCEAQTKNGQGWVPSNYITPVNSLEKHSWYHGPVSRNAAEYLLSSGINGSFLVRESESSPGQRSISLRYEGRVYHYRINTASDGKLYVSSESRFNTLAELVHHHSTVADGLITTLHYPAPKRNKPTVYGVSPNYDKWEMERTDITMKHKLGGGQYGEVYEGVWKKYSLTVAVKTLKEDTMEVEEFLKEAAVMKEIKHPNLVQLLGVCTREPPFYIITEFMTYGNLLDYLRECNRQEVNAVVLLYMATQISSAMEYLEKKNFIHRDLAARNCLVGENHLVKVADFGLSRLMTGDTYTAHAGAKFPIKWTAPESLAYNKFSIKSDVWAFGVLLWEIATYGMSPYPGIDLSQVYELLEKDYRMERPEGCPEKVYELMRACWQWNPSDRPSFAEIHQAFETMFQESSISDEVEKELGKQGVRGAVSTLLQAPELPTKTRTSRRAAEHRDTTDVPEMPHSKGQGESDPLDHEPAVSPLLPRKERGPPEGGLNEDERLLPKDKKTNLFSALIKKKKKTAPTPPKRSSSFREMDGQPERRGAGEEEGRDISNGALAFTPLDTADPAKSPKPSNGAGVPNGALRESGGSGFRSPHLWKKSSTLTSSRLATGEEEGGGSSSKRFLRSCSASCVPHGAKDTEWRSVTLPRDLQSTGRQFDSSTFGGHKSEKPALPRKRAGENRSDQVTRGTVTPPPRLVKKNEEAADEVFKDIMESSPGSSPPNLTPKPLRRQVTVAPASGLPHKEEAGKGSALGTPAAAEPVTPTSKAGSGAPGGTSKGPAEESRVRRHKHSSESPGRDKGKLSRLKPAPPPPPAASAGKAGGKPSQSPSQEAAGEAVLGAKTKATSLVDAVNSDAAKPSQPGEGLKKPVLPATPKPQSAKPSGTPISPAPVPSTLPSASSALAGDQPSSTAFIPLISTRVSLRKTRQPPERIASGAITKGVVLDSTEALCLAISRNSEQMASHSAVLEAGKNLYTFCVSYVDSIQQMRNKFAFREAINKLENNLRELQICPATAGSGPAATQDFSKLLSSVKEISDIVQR
Turning to N642H, the “effect of a mutation on the interaction” value is recorded as “with no effect”.

For the origin of these results see IntAct's records for PubMed 31175292.
